Source: publication PMC10510648

Tests used:
[1] = test system: RirA N8D (Rhizobium leguminosarum strain 8401?); experiment: SPR; settings: SPR: 10 mM Hepes, 150 mM NaCl, 0.05% Tween, pH 7.4, 20 °C, 0-125 nM dimer; EMSA: 10 mM Hepes, 50 mM NaCl, 2.5% sucrose, 2.5 mM MgCl2, 1 mM DTT, pH 7.9, on ice …
[2] = test system: RirA wild type (Rhizobium leguminosarum strain 8401); experiment: SPR; settings: SPR: 10 mM Hepes, 150 mM NaCl, 0.05% Tween, pH 7.4, 20 °C, 0-125 nM dimer; EMSA: 10 mM Hepes, 50 mM NaCl, 2.5% sucrose, 2.5 mM MgCl2, 1 mM DTT, pH 7.9, on ice …

fhuA IRO box 30 bp SPR oligo
Kd [1]: 10.3 nM | Kd [2]: 12.8 nM
